Where a chain is given by its changes, count along the chain named. Names may count otherwise.
B1: humanized mAb BAP049-hum15 (antibody, human IgG4 S228P, kappa)
heavy: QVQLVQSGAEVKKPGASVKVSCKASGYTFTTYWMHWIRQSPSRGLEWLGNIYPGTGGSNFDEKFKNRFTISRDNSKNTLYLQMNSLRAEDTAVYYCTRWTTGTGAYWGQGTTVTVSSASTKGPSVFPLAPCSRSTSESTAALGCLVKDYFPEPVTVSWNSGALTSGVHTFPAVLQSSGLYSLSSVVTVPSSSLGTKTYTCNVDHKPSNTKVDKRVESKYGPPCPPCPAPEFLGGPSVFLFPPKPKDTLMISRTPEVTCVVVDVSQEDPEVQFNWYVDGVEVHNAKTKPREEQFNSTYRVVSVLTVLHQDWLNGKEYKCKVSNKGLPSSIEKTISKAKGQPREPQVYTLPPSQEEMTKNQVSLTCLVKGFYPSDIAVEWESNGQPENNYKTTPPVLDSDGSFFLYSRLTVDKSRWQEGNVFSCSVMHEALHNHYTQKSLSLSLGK
light: EIVLTQSPDFQSVTPKEKVTITCKSSQSLLDSGNQKNFLTWYQQKPGQAPRLLIYWASTRESGVPSRFSGSGSGTDFTFTISSLEAEDAATYYCQNDYSYPYTFGQGTKVEIKRTVAAPSVFIFPPSDEQLKSGTASVVCLLNNFYPREAKVQWKVDNALQSGNSQESVTEQDSKDSTYSLSSTLTLSKADYEKHKVYACEVTHQGLSSPVTKSFNRGEC
notes: Human IgG4(S228P), human kappa; tested as concentrated supernatant of transiently transfected CHO cells
B2: humanized mAb BAP049-hum16 (antibody, human IgG4 S228P, kappa, V domains shown)
VH: EVQLVQSGAEVKKPGESLRISCKGSGYTFTTYWMHWVRQAPGQGLEWMGNIYPGTGGSNFDEKFKNRFTISRDNSKNTLYLQMNSLRAEDTAVYYCTRWTTGTGAYWGQGTTVTVSS
VL: EIVLTQSPDFQSVTPKEKVTITCKSSQSLLDSGNQKNFLTWYQQKPGQAPRLLIYWASTRESGVPSRFSGSGSGTDFTFTISSLEAEDAATYYCQNDYSYPYTFGQGTKVEIKR
notes: as for B1
B3: humanized mAb BAP049-hum11 (antibody, human IgG4 S228P, kappa)
heavy: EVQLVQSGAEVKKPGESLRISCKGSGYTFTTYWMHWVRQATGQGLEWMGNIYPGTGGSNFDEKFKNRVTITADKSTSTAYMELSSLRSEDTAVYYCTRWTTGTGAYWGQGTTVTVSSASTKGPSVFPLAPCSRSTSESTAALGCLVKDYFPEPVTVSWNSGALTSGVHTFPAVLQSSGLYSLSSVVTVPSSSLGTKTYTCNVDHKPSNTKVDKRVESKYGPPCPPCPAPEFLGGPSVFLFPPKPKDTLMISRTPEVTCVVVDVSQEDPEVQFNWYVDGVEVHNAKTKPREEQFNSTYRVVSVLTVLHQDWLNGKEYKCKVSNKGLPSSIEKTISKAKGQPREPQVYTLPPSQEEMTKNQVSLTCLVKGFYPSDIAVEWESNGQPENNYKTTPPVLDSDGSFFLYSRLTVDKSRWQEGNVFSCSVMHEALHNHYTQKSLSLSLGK
light: B1 light with D9A, F10T, Q11L, V13L, T14S, K16G, K18R, V19A, I21L, T22S
notes: Human IgG4(S228P), human kappa; tested as concentrated supernatant of transiently transfected CHO cells; also called Clone No. 11
B4: humanized mAb BAP049-hum06 (antibody, human IgG4 S228P, kappa)
heavy: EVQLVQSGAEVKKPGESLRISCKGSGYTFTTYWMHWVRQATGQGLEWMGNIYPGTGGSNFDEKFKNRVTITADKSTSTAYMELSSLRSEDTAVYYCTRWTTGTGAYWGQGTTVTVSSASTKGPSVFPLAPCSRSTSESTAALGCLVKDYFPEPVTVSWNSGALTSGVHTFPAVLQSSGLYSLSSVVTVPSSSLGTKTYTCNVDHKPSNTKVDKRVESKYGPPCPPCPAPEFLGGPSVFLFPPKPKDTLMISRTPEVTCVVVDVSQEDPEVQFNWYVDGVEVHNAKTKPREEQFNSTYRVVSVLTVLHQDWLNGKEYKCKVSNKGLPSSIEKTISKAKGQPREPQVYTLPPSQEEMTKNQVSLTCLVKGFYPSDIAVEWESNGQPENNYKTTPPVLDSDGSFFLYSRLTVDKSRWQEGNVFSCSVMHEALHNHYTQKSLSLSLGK
light: DIVMTQTPLSLPVTPGEPASISCKSSQSLLDSGNQKNFLTWYQQKPGQAPRLLIYWASTRESGVPSRFSGSGSGTDFTFTISSLEAEDAATYYCQNDYSYPYTFGQGTKVEIKRTVAAPSVFIFPPSDEQLKSGTASVVCLLNNFYPREAKVQWKVDNALQSGNSQESVTEQDSKDSTYSLSSTLTLSKADYEKHKVYACEVTHQGLSSPVTKSFNRGEC
notes: as for B1
B5: humanized mAb BAP049-hum07 (antibody, human IgG4 S228P, kappa)
heavy: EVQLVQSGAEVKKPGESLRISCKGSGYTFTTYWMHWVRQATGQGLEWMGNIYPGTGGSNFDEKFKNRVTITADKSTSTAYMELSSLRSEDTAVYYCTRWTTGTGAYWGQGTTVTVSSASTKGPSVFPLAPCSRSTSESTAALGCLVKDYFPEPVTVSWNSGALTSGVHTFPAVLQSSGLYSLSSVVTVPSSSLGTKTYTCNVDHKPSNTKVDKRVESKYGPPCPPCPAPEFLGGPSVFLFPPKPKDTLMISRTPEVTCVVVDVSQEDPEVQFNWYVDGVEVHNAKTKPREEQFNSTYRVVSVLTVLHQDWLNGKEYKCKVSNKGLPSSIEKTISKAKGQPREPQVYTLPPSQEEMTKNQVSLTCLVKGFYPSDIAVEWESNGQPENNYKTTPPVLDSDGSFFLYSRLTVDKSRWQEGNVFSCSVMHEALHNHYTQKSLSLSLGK
light: EIVLTQSPATLSLSPGERATLSCKSSQSLLDSGNQKNFLTWYQQKPGKAPKLLIYWASTRESGVPSRFSGSGSGTDFTFTISSLEAEDAATYYCQNDYSYPYTFGQGTKVEIKRTVAAPSVFIFPPSDEQLKSGTASVVCLLNNFYPREAKVQWKVDNALQSGNSQESVTEQDSKDSTYSLSSTLTLSKADYEKHKVYACEVTHQGLSSPVTKSFNRGEC
notes: as for B1
B6: humanized mAb BAP049-hum09 (antibody, human IgG4 S228P, kappa)
heavy: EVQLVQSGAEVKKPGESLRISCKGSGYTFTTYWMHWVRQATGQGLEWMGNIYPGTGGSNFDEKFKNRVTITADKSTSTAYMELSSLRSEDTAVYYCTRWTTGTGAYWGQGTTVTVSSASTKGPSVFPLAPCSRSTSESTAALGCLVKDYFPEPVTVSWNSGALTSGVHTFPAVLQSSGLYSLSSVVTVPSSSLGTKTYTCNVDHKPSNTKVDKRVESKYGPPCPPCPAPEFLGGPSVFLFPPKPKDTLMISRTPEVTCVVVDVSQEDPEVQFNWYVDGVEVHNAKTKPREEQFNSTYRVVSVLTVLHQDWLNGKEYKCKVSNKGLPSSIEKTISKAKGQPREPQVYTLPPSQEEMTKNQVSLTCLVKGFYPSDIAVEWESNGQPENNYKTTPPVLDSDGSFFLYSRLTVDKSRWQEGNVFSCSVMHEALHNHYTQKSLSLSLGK
light: B1 light
notes: Human IgG4(S228P), human kappa; tested as concentrated supernatant of transiently transfected CHO cells; also called Clone No. 09
B7: humanized mAb BAP049-hum04 (antibody, human IgG4 S228P, kappa, V domains shown)
VH: B2 VH with V37I, A40S, G42S, Q43R, M48L
VL: EIVLTQSPATLSLSPGERATLSCKSSQSLLDSGNQKNFLTWYQQKPGKAPKLLIYWASTRESGVPSRFSGSGSGTDFTFTISSLQPEDIATYYCQNDYSYPYTFGQGTKVEIKR
notes: as for B1

Target: T1, human PD-1 expressed on cells (human, UniProt Q15116 25-288)
T1 construct: whole, on cells; Treated as one molecule; also called PD-1 expressing Jurkat cells; human PD-1 transfected Jurkat cells
T1 sequence (Q15116 25-288): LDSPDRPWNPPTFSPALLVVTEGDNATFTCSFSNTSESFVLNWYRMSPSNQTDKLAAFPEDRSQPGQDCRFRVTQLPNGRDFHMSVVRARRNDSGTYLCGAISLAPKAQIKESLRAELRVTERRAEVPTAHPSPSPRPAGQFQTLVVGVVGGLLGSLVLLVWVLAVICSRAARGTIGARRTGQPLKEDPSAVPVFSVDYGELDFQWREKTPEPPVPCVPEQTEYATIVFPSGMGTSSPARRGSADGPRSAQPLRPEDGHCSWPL
Assay: rank among the 16 humanized clones in competition with Alexa 488-labeled murine mAb BAP049 on PD-1-expressing 300.19 cells, first experiment
Method: (§1) Incubations with the mAb mixtures having different concentration ratios of test mAb to labeled mAb was at 4° C. for 30 min. Bound labeled murine mAb was then quantified using a FACS machine. The experiment was performed twice.

Compared with B1, B2 is higher in “Competition Binding 1st exp. (rank)” value: 7 for the first, 16 for the second.

Compared with B3, B4 is higher in “Competition Binding 1st exp. (rank)” value: 4 for the first, 7 for the second.

First: B5
Second: B6
The “Competition Binding 1st exp. (rank)” value of the first is higher: 7 for the first, 2 for the second.

B7 was tested, and the “Competition Binding 1st exp. (rank)” value was 15.

Target: T1, human PD-1 expressed on cells
Assay: rank among the 16 humanized clones in competition with Alexa 488-labeled murine mAb BAP049 on PD-1-expressing 300.19 cells, second experiment
Method: as §1

B1 and B2 are the same in “Competition Binding 2nd exp. (rank)” value: 15 for the first, 15 for the second.

First: B3
Second: B4
The “Competition Binding 2nd exp. (rank)” value of the first is higher: > 4 for the first, 3 for the second.

Compared with B5, B6 is lower in “Competition Binding 2nd exp. (rank)” value: > 4 for the first, 4 for the second.

In the case of B7, the “Competition Binding 2nd exp. (rank)” value is reported as 15.

Target: T1, human PD-1 expressed on cells
Assay: rank among the 16 humanized clones by FACS binding data on PD-1-expressing cells

First: B1
Second: B2
The “Ranking FACS data” value of the first is lower: 6 for the first, 15 for the second.

First: B3
Second: B4
The “Ranking FACS data” value of the first is higher: 6 for the first, 1 for the second.

Going from B5 to B6, the “Ranking FACS data” value rises from 4 to 7.

In the case of B7, the “Ranking FACS data” value is reported as 14.
